This note sets out measurements from PMC5429807, “Glucose uptake in Azotobacter vinelandii occurs through a GluP transporter that is under the control of the CbrA/CbrB and Hfq-Crc systems”.

For one data set, the target named is T1, Crc (Azotobacter vinelandii AEIV, UniProt C1DI50 1-259).
T1 sequence: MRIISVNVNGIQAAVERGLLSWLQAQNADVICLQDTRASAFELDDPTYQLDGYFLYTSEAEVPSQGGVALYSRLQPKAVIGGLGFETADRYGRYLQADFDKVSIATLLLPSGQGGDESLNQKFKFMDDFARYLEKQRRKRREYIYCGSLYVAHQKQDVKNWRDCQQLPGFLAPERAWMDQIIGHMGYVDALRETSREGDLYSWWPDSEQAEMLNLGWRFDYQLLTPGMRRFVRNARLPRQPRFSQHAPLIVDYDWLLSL
Nature of the data set: EMSA; Crc alone; RNA EMSA as in a cited protocol (ref. 13), excess tRNA, non-denaturing polyacrylamide gel; buffer, salt, pH and temperature not given in the material. The following applies: protein: recombinant; tags: none (intein removed); label: 5'-32P; single strand. On the technique in general: In EMSA bound probe runs differently from free probe, usually more slowly.

In the next data set the target is T2, Hfq-His (P. putida) (Pseudomonas putida, UniProt Q88DD3 1-86).
T2 sequence: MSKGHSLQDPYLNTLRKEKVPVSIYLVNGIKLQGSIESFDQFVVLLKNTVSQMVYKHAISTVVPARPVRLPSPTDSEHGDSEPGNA
Nature of the data set: EMSA; Hfq alone, at the tested concentrations; RNA EMSA as in a cited protocol (ref. 13), excess tRNA, non-denaturing polyacrylamide gel; buffer, salt, pH and temperature not given in the material. The conditions noted are these: protein: recombinant; tags: His; chain copies: 6; label: 5'-32P; single strand.

The target of data set [1] is T3, Hfq-His;Crc (Azotobacter vinelandii …, UniProt C1DLQ2;C1DI50 1-84;1-259, |). The data set can be described thus: EMSA; about equimolar Hfq hexamer and Crc needed; RNA EMSA as in a cited protocol (ref. 13), excess tRNA, non-denaturing polyacrylamide gel; buffer, salt, pH and temperature not given in the material. The conditions noted are these: protein: recombinant;recombinant; tags: C-terminal His6;none (intein removed); chain copies: 6;1; label: 5'-32P; single strand.

Data set [2] has as its target T3, Hfq-His;Crc. The data set can be described thus: EMSA; control RNA; stable complex not observed; RNA EMSA as in a cited protocol (ref. 13), excess tRNA, non-denaturing polyacrylamide gel; buffer, salt, pH and temperature not given in the material. The following applies: protein: recombinant;recombinant; tags: C-terminal His6;none (intein removed); chain copies: 6;1; single strand.

T3 sequence (C1DLQ2 whole entry, one chain of several): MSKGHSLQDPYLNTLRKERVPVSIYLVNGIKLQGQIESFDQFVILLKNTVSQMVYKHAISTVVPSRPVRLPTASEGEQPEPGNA

As to AAGCAACAAUCACAACAAGAGGAAAU (ssRNA) [gluP A-rich RNA oligo], the results for the binding result in the data set with Crc, in the data set with Hfq-His (P. putida) and with Hfq-His;Crc [1] were “no binding”, “no binding” and “binds”, respectively.
As to UUCCCCAUCUCCCCAUCCAUAGGGGC (ssRNA) [DmpR 6C control RNA], the binding result in the data set with Hfq-His;Crc [2] is “no binding”.
